Measurements reported in patent US20060204512A1 (VASGENE THERAPEUTICS, published 2006).

Molecular target: T1, EphB4 CF2 protein (ECD version with deleted globular domain, 6xHis tagged) (human, UniProt P54760 16-537)
T1 construct: The entry is the precursor
T1 sequence: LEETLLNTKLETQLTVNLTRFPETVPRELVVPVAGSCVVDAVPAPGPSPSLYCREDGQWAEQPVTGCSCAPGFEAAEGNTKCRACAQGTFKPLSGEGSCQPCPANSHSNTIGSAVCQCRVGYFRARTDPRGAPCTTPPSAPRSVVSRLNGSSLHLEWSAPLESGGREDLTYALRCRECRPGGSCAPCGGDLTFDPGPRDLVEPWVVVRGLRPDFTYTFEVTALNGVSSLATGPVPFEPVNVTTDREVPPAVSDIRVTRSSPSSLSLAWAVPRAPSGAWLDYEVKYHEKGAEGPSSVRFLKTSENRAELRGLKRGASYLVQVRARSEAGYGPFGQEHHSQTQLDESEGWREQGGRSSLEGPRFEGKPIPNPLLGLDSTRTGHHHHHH
Test: Ephrin B2-AP binding to B4 proteins immobilized on Ni2+ resin or nitrocellulose membrane
Procedure: To confirm ability of the purified recombinant proteins to bind Ephrin B2, they were tested in an in vitro binding assay. As expected, GC, GCF1 and GCF2, but not CF2 are binding the cognate ligand Ephrin B2 as confirmed by interaction between Ephrin B2-alkaline phosphatase (Ephrin B2-AP) fusion protein with the B4 proteins immobilized on Ni²⁺ resin or on nitrocellulose membrane (FIG. 17).

binding result: no binding
B1: B2EC-AP reagent (protein fusion of Ephrin B2 ectodomain with placental alkaline phosphatase) (ligand, UniProt P52799 28-229, looked up)
chain: IVLEPIYWNSSNSKFLPGQGLVLYPQIGDKLDIICPKVDSKTVGQYEYYKVYMVDKDQADRCTIKKENTPLLNCAKPDQDIKFTIKFQEFSPNLWGLEFQKNKDYYIISTSNGSLEGLDNQEGGVCQTRAMKILMKVGQDASSAGSTRNKDPTRRPELEAGTNGRSSTTSPFVKPNPGSSTDGNSAGHSGNNILGSEVALFA
notes: extracellular domain; also called B2-AP; Ephrin B2-AP; not shown: placental alkaline phosphatase
